Test results taken from patent US20170306032A1 (RESEARCH CORPORATION TECHNOLOGIES, published 2017).
Where a chain is given by its changes, count along the chain named.

B1: B11 modified CH2 domain SEQ ID NO: 91 (C terminal cysteine) conjugated with Biotin-dPEG11 (designed binder)
chain: GPSVFLFPPKPKDTLMISRTPEVTCVVVDYRADYLDVKFNWYVNGAEVHHAQTKPRQYDPLYGYRVVSVLTVTHQDWLNGKEYTCKVSNKALPAPIQKTISKDC
modifications: conjugated with Biotin-dPEG11-MAL after reduction with DTT; the residue that carries it is not stated (chain has a C terminal cysteine)
notes: also called B11-dPEG-biotin
B2: E10 modified CH2 domain (first generation loop 2 clone, parental clone of the affinity maturation) (designed binder)
chain: GPSVFLFPPKPKDTLMISRTPEVTCVVVDVSHEDPEVKFNWYVDGAEVHHAQTKPRQYDPLYGYRVVSVLTVLHQDWLNGKEYKCKVSNKALPAPIEKTISKAK
notes: purified protein elsewhere; also called E10par
B3: H3 (first generation loop 2 clone, loop 2 AYYALGG) (designed binder)
chain: B2 chain with Q57A, D59Y, P60A, Y62G
notes: From library #15 (Glu293 to Thr299 randomised); A9 is kept apart as m12; also called H3par
B4: D2 modified CH2 domain (affinity matured, loop 1 YEAAAL, loop 2 of E10) (designed binder)
chain: B2 chain with V30Y, S31E, H32A, E33A, D34A, P35L
notes: Expressed in Shuffle cells, purified on HisTrap
B5: B11 modified CH2 domain (affinity matured, loop 1 YRADYL, loop 2 of E10) (designed binder)
chain: B2 chain with V30Y, S31R, H32A, E33D, D34Y, P35L
B6: G7 modified CH2 domain (affinity matured, loop 1 PHLGVD, loop 2 of E10) (designed binder)
chain: B2 chain with V30P, S31H, H32L, E33G, D34V, P35D
B7: H6 modified CH2 domain (first generation loop 2 clone) (designed binder)
chain: B2 chain with Q57R, Y58V, Y62G
notes: purified on a Nickel column from E. coli periplasm for protein ELISA and SPR
B8: B11 modified CH2 domain SEQ ID NO: 89 (C terminal cysteine and N terminal hinge sequence) conjugated with Biotin-dPEG11 (designed binder)
chain: GSCDKTHTAPEKKGGPSVFLFPPKPKDTLMISRTPEVTCVVVDYRADYLDVKFNWYVNGAEVHHAQTKPRQYDPLYGYRVVSVLTVTHQDWLNGKEYTCKVSNKALPAPIQKTISKDC
modifications: conjugated with Biotin-dPEG11-MAL after reduction with DTT; the residue that carries it is not stated (chain has a C terminal cysteine)
notes: also called B11-dPEG-biotin
B9: B11 modified CH2 domain SEQ ID NO: 90 (N terminal hinge sequence) conjugated with Biotin-dPEG11 (designed binder)
chain: B8 chain with C118K
modifications: conjugated with Biotin-dPEG11-MAL after reduction with DTT; the residue that carries it is not stated
notes: also called B11-dPEG-biotin
B10: wild type CH2D (wild type human IgG CH2 domain) (other)
chain: APELLGGPSVFLFPPKPKDTLMISRTPEVTCVVVDVSHEDPEVKFNWYVDGVEVHNAKTKPREEQYNSTYRVVSVLTVLHQDWLNGKEYKCKVSNKALPAPIEKTISKAK
notes: also called CH2wt

Legend:
[1] = molecular target: T1, human EphA2 receptor expressed on cells (HEK293-EphA2, CHO-EphA2, PC-3) (human, UniProt P29317 24-976); experiment: immunofluorescence on PC-3 cells expressing endogenous EphA2 receptor, 4° C. for 30 minutes
T1 construct: whole, on cells; also called EphA2 transfected cells; HEK293-EphA2 overexpressing cells

[2] = molecular target: T2, human EphA2 recombinant protein (purified human EphA2 extracellular domain) (human, UniProt P29317 24-537); experiment: phage ELISA on coated hEphA2, anti-M13-HRP, developed 30 min
T2 construct: extracellular domain; Biotinylated for the Octet assay; also called hEphA2; huEphA2

[3] = molecular target: BSA (bovine serum albumin, control) (bovine, UniProt P02769 25-607); experiment: phage ELISA on coated BSA, anti-M13-HRP
[4] = molecular target: T3, FcRn; experiment: SPR
T3 construct: also called neonatal receptor FcRn

[5] = molecular target: T4, mouse EphA2 recombinant protein (Fc chimera, R&D Systems, cat#639-A2) (mouse, UniProt Q03145 26-535); experiment: SPR, Biacore 3000, on mEphA2
T4 construct: Biotinylated for the Octet assay; also called mEphA2-Fc; mEphA2; Fc part of the bought chimera not given

[6] = molecular target: T1, human EphA2 receptor expressed on cells …; experiment: phage ELISA on fixed HEK293 cells with doxycycline-induced EphA2 (NO DOX, 100, 50, 25 ng/ml), anti-M13-HRP
[7] = molecular target: T4, mouse EphA2 recombinant protein (Fc …); experiment: end-point titration ELISA on mEphA2
[8] = molecular target: T1, human EphA2 receptor expressed on cells …; experiment: FACS on CHO cells transfected with human EphA2
[9] = molecular target: T2, human EphA2 recombinant protein …; experiment: BLI, Octet Red, biotinylated huEphA2 on streptavidin sensors, steady state fit (column head prints EC50, title KD)
[10] = molecular target: T4, mouse EphA2 recombinant protein (Fc …); experiment: BLI, Octet Red, biotinylated mEphA2 on streptavidin sensors, steady state fit (column head prints EC50, title KD)
[11] = molecular target: T2, human EphA2 recombinant protein …; experiment: end-point titration ELISA on huEphA2
[12] = molecular target: T2, human EphA2 recombinant protein …; experiment: SPR, Biacore 3000, immobilized huEphA2 extracellular domain, KDequilibrium
[13] = molecular target: T2, human EphA2 recombinant protein …; experiment: SPR, Biacore 3000, immobilized huEphA2 extracellular domain, KDkinetic
[14] = molecular target: T2, human EphA2 recombinant protein …; experiment: SPR, Biacore 3000, immobilized huEphA2 extracellular domain
[15] = molecular target: T1, human EphA2 receptor expressed on cells …; experiment: FACS titration on human EphA2 transfected CHO cells, anti-His-FITC detection [upper panel]

T4 sequence (Q03145 26-535, change not shown): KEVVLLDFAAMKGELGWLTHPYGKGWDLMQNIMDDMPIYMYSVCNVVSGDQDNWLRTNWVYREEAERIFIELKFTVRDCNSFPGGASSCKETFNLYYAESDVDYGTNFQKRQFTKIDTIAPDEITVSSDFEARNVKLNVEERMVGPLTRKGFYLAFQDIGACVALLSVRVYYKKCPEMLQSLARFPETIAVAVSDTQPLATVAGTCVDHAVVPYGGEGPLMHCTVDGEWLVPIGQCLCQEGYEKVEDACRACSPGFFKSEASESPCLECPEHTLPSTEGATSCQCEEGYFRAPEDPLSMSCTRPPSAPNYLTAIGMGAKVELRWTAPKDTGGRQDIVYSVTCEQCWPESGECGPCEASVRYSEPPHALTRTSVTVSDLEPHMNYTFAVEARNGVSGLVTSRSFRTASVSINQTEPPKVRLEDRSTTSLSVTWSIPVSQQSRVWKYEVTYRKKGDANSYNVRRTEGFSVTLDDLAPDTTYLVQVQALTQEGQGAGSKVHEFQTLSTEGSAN
T1 sequence (P29317 24-976): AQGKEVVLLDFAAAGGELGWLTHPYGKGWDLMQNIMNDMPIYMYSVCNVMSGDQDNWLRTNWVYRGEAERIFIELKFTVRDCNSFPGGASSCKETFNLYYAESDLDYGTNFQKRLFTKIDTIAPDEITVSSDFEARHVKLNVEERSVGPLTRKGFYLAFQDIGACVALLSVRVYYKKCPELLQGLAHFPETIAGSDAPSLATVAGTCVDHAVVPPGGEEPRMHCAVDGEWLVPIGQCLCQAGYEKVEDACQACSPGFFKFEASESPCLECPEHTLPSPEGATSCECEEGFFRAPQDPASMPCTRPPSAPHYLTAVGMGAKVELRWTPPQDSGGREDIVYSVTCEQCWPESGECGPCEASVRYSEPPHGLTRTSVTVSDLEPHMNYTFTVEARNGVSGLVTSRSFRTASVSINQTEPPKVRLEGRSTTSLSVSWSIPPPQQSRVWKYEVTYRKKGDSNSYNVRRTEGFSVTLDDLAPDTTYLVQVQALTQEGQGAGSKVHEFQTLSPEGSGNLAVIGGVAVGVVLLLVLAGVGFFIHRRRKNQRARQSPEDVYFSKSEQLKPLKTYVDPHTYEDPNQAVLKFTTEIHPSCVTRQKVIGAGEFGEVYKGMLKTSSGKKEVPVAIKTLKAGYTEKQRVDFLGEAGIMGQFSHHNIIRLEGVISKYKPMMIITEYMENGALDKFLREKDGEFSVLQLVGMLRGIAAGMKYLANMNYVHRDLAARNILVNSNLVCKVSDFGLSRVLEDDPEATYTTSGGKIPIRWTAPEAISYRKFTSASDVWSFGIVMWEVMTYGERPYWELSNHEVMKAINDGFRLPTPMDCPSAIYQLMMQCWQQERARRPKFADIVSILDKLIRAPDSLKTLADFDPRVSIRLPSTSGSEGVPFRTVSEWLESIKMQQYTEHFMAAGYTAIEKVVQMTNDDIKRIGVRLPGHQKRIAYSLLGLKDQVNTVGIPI
T2 sequence (P29317 24-537): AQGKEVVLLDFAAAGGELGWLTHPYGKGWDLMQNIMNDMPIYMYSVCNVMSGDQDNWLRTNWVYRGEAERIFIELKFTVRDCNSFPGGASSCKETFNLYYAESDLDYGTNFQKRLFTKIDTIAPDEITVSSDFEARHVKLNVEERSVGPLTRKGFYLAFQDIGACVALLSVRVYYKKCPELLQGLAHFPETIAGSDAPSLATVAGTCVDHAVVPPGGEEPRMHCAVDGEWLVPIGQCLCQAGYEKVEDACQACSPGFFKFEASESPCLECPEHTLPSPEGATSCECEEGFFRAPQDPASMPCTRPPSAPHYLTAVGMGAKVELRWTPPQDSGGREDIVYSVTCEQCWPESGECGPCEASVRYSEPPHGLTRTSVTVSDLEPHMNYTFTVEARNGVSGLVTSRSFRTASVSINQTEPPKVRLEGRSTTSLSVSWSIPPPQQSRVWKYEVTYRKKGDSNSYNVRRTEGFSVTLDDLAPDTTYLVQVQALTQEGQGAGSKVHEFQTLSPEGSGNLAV
T3 sequence (P55899 24-297, chain 1 of 2): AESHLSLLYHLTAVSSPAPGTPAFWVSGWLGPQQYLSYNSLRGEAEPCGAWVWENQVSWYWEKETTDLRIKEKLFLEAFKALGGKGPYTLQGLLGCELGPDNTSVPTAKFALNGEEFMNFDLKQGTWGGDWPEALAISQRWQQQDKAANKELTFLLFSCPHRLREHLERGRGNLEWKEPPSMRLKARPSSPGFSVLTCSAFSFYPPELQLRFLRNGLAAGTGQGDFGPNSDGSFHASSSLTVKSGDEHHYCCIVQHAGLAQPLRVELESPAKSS
T3 sequence (P61769 21-119, chain 2 of 2, further chain): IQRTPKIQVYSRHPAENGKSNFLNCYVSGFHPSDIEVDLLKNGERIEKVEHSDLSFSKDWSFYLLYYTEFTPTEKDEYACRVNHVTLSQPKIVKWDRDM
Chain of BSA (bovine serum albumin, control) (P02769 25-607 limits assumed): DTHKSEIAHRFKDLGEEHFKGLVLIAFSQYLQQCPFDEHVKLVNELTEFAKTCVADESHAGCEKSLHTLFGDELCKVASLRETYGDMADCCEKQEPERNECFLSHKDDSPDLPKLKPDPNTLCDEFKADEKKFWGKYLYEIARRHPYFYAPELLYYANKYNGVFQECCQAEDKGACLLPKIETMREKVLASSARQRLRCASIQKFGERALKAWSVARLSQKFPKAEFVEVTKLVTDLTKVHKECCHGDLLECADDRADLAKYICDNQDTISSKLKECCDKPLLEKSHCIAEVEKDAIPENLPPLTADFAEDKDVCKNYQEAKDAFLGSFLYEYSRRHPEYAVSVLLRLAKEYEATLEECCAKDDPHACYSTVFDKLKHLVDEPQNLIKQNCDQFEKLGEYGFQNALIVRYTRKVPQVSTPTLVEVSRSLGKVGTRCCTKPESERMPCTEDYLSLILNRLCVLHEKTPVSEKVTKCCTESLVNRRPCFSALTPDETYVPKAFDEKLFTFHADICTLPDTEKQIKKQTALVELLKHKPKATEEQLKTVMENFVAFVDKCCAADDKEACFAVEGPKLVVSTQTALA

| Binder | binding result [1] | Kd [5] | koff [5] | kon [5] | EC50 [7] | EC50 [8] | Kd [9] | Kd [10] | EC50 [11] | also measured |
| --- | --- | --- | --- | --- | --- | --- | --- | --- | --- | --- |
| B1 | binds |  |  |  |  |  |  |  |  |  |
| B2 |  | 97 nM | 0.008 s⁻¹ | 79100 M⁻¹ s⁻¹ |  |  |  |  |  | binding result [2]: binds; binding result [3]: no binding; Kd [4]: 3260 nM; binding result [6]: binds |
| B3 |  | 383 nM | 0.014 s⁻¹ | 36400 M⁻¹ s⁻¹ |  |  |  |  |  |  |
| B4 |  |  |  |  | 1.97 nM | 1310 nM | 20 nM | 18 nM | 2.55 nM |  |
| B5 |  |  |  |  | 9.89 nM | 403 nM | 3.1 nM | 5.5 nM | 4.43 nM | Kd [12]: 13.9 nM; Kd [13]: 13 nM; koff [14]: 0.0158 s⁻¹; kon [14]: 1.21e+06 M⁻¹ s⁻¹ |
| B6 |  |  |  |  | 3.18 nM | 333 nM | 18 nM | 21 nM | 8.06 nM | Kd [12]: 22 nM; Kd [13]: 21 nM; koff [14]: 0.0375 s⁻¹; kon [14]: 1.8e+06 M⁻¹ s⁻¹ |
| B7 |  | 873 nM | 0.008 s⁻¹ | 9610 M⁻¹ s⁻¹ |  |  |  |  |  | binding result [2]: binds; binding result [3]: no binding; binding result [6]: binds |
| B8 | binds |  |  |  |  |  |  |  |  |  |
| B9 | binds |  |  |  |  |  |  |  |  |  |
| B10 |  |  |  |  |  |  |  |  |  | Kd [4]: 1660 nM; binding result [15]: no binding (tested: about 3.6 µM) |
